In article PMC7690626:

Biological target: T22-GFP-H6 protein nanoparticle (unlabeled) (horseshoe crab | not stated)
Assay: SEC-MALS; Superdex 200 increase 10/300 GL; 166 mM NaHCO3, 333 mM NaCl, 0.1 mM NiCl2, pH 8; average molar mass of the self-assembled nanoparticles, in duplicate

- stoichiometry N: 10 copies
Substance: T22-GFP-H6 protein nanoparticle (unlabeled)
